# Experiment: yeast display, Sf9 membrane polyspecificity reagent, FACS + sequencing; frameworks hold sequencing errors
# Procedure, shortened: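 Nanobodies came from a synthetic yeast display library in Saccharomyces cerevisiae BJ5465, induced with galactose for 36–48 hours and stained for 1 hour at 4 °C with 10% biotinylated, detergent-solubilized Sf9 membrane reagent. Cells were enriched on streptavidin microbeads and then FACS-sorted, with low and high (top ~1%) gates set on anti-HA fluorescence for expression and streptavidin fluorescence for reagent binding. Each polyreactivity label reflects the gate a clone came from. Genes were amplified by colony PCR, sequenced by MiSeq 2 × 250 and filtered by CDR length.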
row,Sequence,polyreactivity (PSR sort gate)
1,QVQLVESGGGLVQAGGSLRLSCAASGSTFPVYAMGWYIQAPGKERELVAAISYSGTRTYYADSVKGRFTISRDNAKNTVYLQMNSLKPEDTAVYYCAADFEGYGQGYGYWGQGTQVTVSS,low polyreactivity
2,QVQLVESGGGLVQAGGSLRLICAASGSTFPTYAMGWYRQAPGKERELVAAISTRGGSTYYADSVKGRFTISRDNAKNTVYLQMNSVKPEDTAVYYCATGKTVGRYHYEYWGQGTQVTVSS,low polyreactivity
3,QVQLVESGGGLVQAGGILRLSCAAYGRTFSRYGMGWYRHAPGKERQLVADITWRGDSTYYADSVKGRFTISRDNAKNTVYLQMNSLKPEDTAVYYCAVYWRSLYYGYTYDYWGQGTQVTLSS,high polyreactivity
4,EEELVESGGGLVQAGGSLRLSCAASGSIFVVNAMGWYRQAPGKERELVAAISRGGITNYADSVKGRFTISRDNAKNTVYLQMNSLKPEDTAVYYCNARGSRWVKPERDYWGQGTQVTVSS,low polyreactivity
5,QVQLEESGGGLVQAGGRLRLSCAASGRIIYGYAMGWYRQAPGKERELVAAITATYYADSVKGRFTISRDNAKNTVYLQMNSLKPEDTAVYYCYAYLSPKQPLSPPDPTFEGGYWGQGTQVTVSS,low polyreactivity
6,QVQLVESGGGLVQAGGSLRLSCAASGFIFRYNAMGWYRQAPGKESELVAAISSSGTTNYADSVKGRFTISRDNAKNTVYLQMNSLKPEDTAVYYCAARRSYARRFKNSMEYWGEGTQVTVSS,high polyreactivity
7,QVQLVESGGGLVQAGGSLRLSCAASGFTFKYNAMGWYRQAPGKERELVASISRGSSTNYADSVKGRFTISRDNAKNTVYLQMNSLKPEDTAVYYCAKGYRPWGSYDYWGQGTQVTVSS,high polyreactivity
8,QVQLVESGGGLVQAGGRSCAASGSTFRPYAMGWYRQAPGKEREFVAAISWRGGRTYYADSVKGRFTISRDNAKNTVYLQMNSLKPEDTAVYYCAVDPSIYRLSAYYYDYWGQGTQVTVSS,low polyreactivity
9,QVQLVESGGGLVQAGGSLRLSCAASGSIFSYYAMGWSRQAPGKERELVAAISRSGTSTYYADSVKGRFTISRDNAKNTVSLQMNSLKPEVNAVDYCNARWGFSRHRLMGYWGQGTQVSVSS,high polyreactivity
10,QVQLVESGGGLVQAGGSLRLSSAASGSTIGGYAMGWYRQAPGKERELVAAITRSGGRTYYADSVKGRFTISRDNSKNTVYLQMNSLKPEDTAVYYCATLVTIGRYDSWGQGTQVTVSS,high polyreactivity
11,QVQHVESGRGLVQAGGSLRLSCAASGITFRYYAMGWYRQAPGKERELVAAISRGTSTKYADSVKGRFTISRDNAKNTVYLQMNSQKPEDTAVYYCAVYGYWSKSDYWGQGTQVTVSS,low polyreactivity
12,QVQLVESGGGLVQAGGSLRLSCAASGSIFPWNTMGWYRQAPGKERELVARISTSGASTYYADSVKGRFTISRDNAKNTVYLQMNSLKPEDTAVYYCAARKRPFYKYDYWGQGTQVTVSS,high polyreactivity
13,QDQLVESGGCLVQAGGSHRLSSAASGIIIWYNTMGRYRQAPGKEREFFARISRRVGSTYYADSVKGRFTISRDNAKNTVYLQMNSLKPEDTAVYYCNRTRYRSFHYDYWGQGTKVTVSS,high polyreactivity
14,QVQLVESGGGLVQAGGSLRLSCAPSGSIFHYYAMGWYRQAPGKERELVAAISWSGGRTNYADSVKGRFTISSDNAKNTVYLQMNSLKPEDTAVYYCAAGNSFSDRGHRVYFQYYYWGQGTQVTVSS,high polyreactivity
15,QVQLVESGGGLVQAGGSLRLSCAASGSTFGFYAMGWYRQAPGKERELVAVISSGDSTYYADSVKGRFTISRDNAKKTVYLQMNSLIPEDTAVDYCAKDALVIDGGGGYDYWGQGTQVTVSS,low polyreactivity
16,QVQLVESGGGLVQAGGSLRLSCAASGRTFYPYAMGWSRQAPGKERELVAAISWNGGRTYYADSVKGRFTISRDNAKNTVYLQMNSLKPEDTAVYYCAADTAYYDFDYWGQGTQVTVSS,low polyreactivity
17,QVQLVESGGGLVQAGGRLRLSCAASGFTFPLYTMGWYRQEPGKERELVAAITWSGGSTYADSLKGRFTISRDNAKNTVYLQMNSLNPEDTEVYYCNRRLQPRGAGHNSWGQGTQVTVSS,high polyreactivity
18,QVQLVESGGGLVQAGCSLRLSCAASGRTFGSYAMGWYRQAPGKERDLVAGITWRDGSTYYADSVKGRFTISRDNAKNTVYFQMNSLKPEDTAVYYCDKEAVRYYLFGMEYWGQGNQVTVSS,low polyreactivity
19,QVQLQESGGGQVQAGGSLRPSCAASGSISDRVPMGWYRQAPGEERELVATTVLGATTNYADSVKGRFTISRGNAKNTVYLQMNSLKPEETAVYYCAAPLRYDKGFSYWGEGTQVTVSS,low polyreactivity
20,QVQLVESGGGLVQAGGSLRLSCAASGRTFGGNAMGWSRQAPGKERELVAAISISGGSNTYYADSVKGRFTISRDNGKNTVYLQMNSLKPEDTAVYYCAARSTVYISSDYWGQGTQVTVSS,low polyreactivity
21,QVQLVESGGGLVQAGGSLRLSCAASGFTFVINDMGWYRQAPGKERELVADITSGGDTYYADSVKGRFTISRDNAKNTVYLQMNSLTPEDTAVYYCAADIYPDWIYLLYGYWGHGTQVTVSS,low polyreactivity
22,QVQLVESGGGLVQAGGSLRLSCAASGSTFFHYVMGWYRQAPGKERELVAAIRWSGGRTRYADSVKGRFTISRDNAKNTVYLQMNSLKPEDTAVYYCAAYRLSKPFYKYDYWGQGTQVTVSS,high polyreactivity

row,Sequence,polyreactivity (PSR sort gate)
1,QVQLVESGGGLVQAGGSLRLSCAASGFTFAHNAMGWYRQAPGKERELVAAITSRGGSTYYADSVKGRFTISRDNAKNTVYLQMNSLKPEDTAVYYCAARGVNRQVFNYWGQGTQVTVSS,high polyreactivity
2,QVQLVESGGGLVQAGGSLRLSCAASGITFKTNARGWYRQAPGKERELVAAINKRGGSTYYADSVKGRFTISRDNAKNTVYLQMNSLKPEDTAVYYCARRYGEKFGGQGTQVTVSS,high polyreactivity
3,QVQLVESGGGLVQAVGSLLLSCAASGSTFRYNAMGWYRQAPGKEREFVATISWTTGSSYYADSVKGRFTISRDNAKNTVYLQLNSLKPEDTAFYFCAADASLFSDFRDYDYWGQGTQVPVSS,low polyreactivity
4,QVQLVESGGGLVQAGGSLRLSCAASGSIFYRYSMGWYRPAPGKESELVATITQSGVTTYYADSVKGRFTISRDNAKNTVYLELNSVKPEDTAVYYCAASYYYYLGPFFRKFDWGQGTQVTVSS,low polyreactivity
5,QVQLVESGGGLVQAGGSLRLSCAASGLTFRLNAMGWYRQAPGKERELVAAITSIADRTYYADSVKGRFTISRDNAKNTVYLQMNSLKPEDTAVYYCNVTPRRAQVRIGNYWGQGTQVTVSS,high polyreactivity
6,QVQLVESGGGLVQAGGSLRLSCAASGFIFDIYAMGWYRQAPGKERELVASITWDDGSTYYADSVKGRFTISRDNAKNTVYLQMNRLKPVDTAVYYCAADFEAGGYSLDYWGQGTQVTVSS,low polyreactivity
7,QVQLVESGGGLVQAGGSLRLICAASGRIIGKNAMGWYRQARGKERELVAAIRYNGGRTYYADSVKGRFTISRDNAKNTVYLQMNSLKPEDTAVYYCAARWRSWRYKYDYWGQGTQVTVSS,high polyreactivity
8,QVQLVESGLCLVQAGGSLRLSCAASGRIFRSYLMGWYRPAPGKERELVAAISNSGTRTYYADSVKGRFTISRDNAKNTVYLQKNSLKPEDTAVYYFITRRGRGSVDYDYWGQGSQVTVSS,high polyreactivity
9,QVQLVESGGGLVQAGCSLRLSSAASGFIYYRYAMGWYRQAHGKERELVAAISRSGGSTYYADSVKGRFTISRDNAKNTVYVQMNRLKPEDTAVYYCAADSGSLAPGNDYWGQGTQVTVSS,high polyreactivity
10,QVQLVESGGGLVQAGGSLRLSCAASGGIFSSYAMGWYRQAPGKERELVADISWNGDSTYYADSVKGRFTISRDNAKNTVYLQMNSLKPEDTAVYYCNAQWYFTPGTPVDYWGQGTQLTVSS,low polyreactivity
11,QLQLVESGGGLVQAGGSLRLSCAASGSTFDTYAMGWYRHAPGKERELVAGINTDGDNTYYADSVKGRFTISRDNAKNTVYVQMNSLKPEDTAVYYCAARFYRASGRTPSYRGHHYDYWGQATQVTVSS,low polyreactivity
12,QVQLVESGGGLVQAGGSLRLSCAASGRTFGYYARGWYRQAPGKERELVADISSGGSTSYADSVKGRFTISRDNAKNTVYLQMNSLKPEDTAVYYCAADSHQNFSGWLRWPRMDYWGQGSQVTVSS,low polyreactivity
13,QVQLVESGGGLVEEGGSLRLSCAASGSIFYRNDMGWYRQAPGKERELVAAISWSGGRTYYADSVKGRFTISRDNAKNTVYLQMNSLKPEDTAVYYCAAFRHRQSSDNGYDYWGQGTQVTVSS,high polyreactivity
14,QVQLVESGGGLVQAGGSLRLSCAASGSTFTYYAMGWYRQAPGKERELVAAITSNGGSTFYADSVKGRFTISRDNAKNTVYLQMNSLKPEDTAVYYCAAYRTHGPPRAIRFDYWGQGTQVTVSS,high polyreactivity
15,QVQLVDSSGGLVQAGGSLSLSCAASGRTFGFYAMGWYIQAPGSERELVASITWRGGRKYYADSEMGSFTISRDNAKNTCYLQMISLKPEDTAVYYCAAAYHPYQGVTGHDGGYDYWGQGTQVTVSS,low polyreactivity
16,QVQLVESGGGLVQAGGSLRLSCAASGRNFENNAMGWYRQAPGKERELVAAITSSGGRTYYADSVKGRFTISRDNAKNTVYLQMNSLKPEDTAVYYCAADNFAPEFYYWGQGTQVTVSS,low polyreactivity
17,QVQLVESGGGLVPAGGSLRLSCAASGRIYARNAMGWYRKAPGKERDLVAAISSRGSSTYYADSVKGRFTISRDTAKNTVSLQMNSLKPEDTAVYYCNAYYSVYPPGYDYWGQGPQVTVSS,high polyreactivity
18,QVQLVESGGGLVQAGGSLRLSCAASGSIFEVNAMGWYTQAPGKERELVATITYSGGSTYYADSVKGRFTISRDNAKNTVYLQMNSLKPEDTAVYYCATDYVDWELYIYDYWGQGTQVTVSS,low polyreactivity
19,QVQLVESGGGLVQAGGSLRLSCAASGFTFKAYAMGWYRQAPGKERELVAAITKSGGRTFYADSVKGRFTISRDTAKNTVYFQMNSLKPEDTAVYYCAASYTVYYWGQGTQVTVSS,high polyreactivity
20,QVQLVESGGGLVQAGGSLRLTCAASGFNFWDYAMGWYRQAPGKERELFAAISDSGGDTYYADSVKGRFTISRDNAKNTVYLQMNSLKPEDTAVYYCASDVELWVFRGQQYDYWGQGTQVTVSS,low polyreactivity
21,QVQLVESGGGLVQAGGSLRLSCAASGSTFWSYAIGWYRQAPGKERELVATISAGGGSTSYADSVKGRFTISRDNAKNTVYLQMNSLKPEDTAVYYCATGYSDSSRYGGYYKFDYWGQGTQVTVSS,low polyreactivity
